The record followed here is US20240109974A1 (SHANDONG SIMCERE BIOPHARMACEUTICAL, published 2024).

In assay [1] the target is T1, human TNFR2 (Novoprotein, Cat #C830) (human, UniProt P20333 23-257, limits assumed).
T1 construct: construct not described; also called human TNFR2 protein
T1 sequence (looked up): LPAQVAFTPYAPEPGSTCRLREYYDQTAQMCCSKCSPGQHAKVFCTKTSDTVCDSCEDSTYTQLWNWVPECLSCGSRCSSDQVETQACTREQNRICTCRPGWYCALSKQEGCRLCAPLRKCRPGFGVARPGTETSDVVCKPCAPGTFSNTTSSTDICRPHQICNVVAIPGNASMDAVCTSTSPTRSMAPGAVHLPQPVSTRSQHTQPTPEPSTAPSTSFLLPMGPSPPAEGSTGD
The assay is described as follows: competition ELISA: antibody titrated against human TNFα-Biotin on coated human TNFR2 (Novoprotein), detection with Streptavidin-HRP [panel B]. Here is the method:
(§1) 1 μg/ml human TNFR2 (Novoprotein, Cat #C830) was pre-coated with 100 μl/well […] in an ELISA plate. All the test TNFR2 antibodies were subjected to 2.5-fold gradient dilution from the highest concentration of 30 μg/ml; the diluted antibodies were mixed with 15 ng/ml human TNFα-Biotin (Acro Biosystem, Cat #TNA-H82E3) in equal volume, respectively; the resulting mixture was added to the ELISA plate at 100 μl/well, and incubated with shaking at room temperature for 2.0 hours. The plate was washed, and then a Streptavidin-HRP working solution (diluted at 1:10000) was added at 100 μl/well, and the mixture was incubated with shaking at room temperature for 40 minutes. The plate was washed again, and then the substrate TMB of HRP was added to develop colour. A stop solution was added to stop the reaction, and then a microplate reader (MD 13) was used to read the absorbance value. The inhibitory curve of an antibody was drawn with antibody concentration as the abscissa and corresponding OD value as the ordinate, and fitted with four parameters (GraphPad Prism9) to calculate the IC50 value. The smaller the IC50 value, the stronger the ability of an antibody to inhibit the binding of human TNFα to human TNFR2. The blocking effect of a humanized antibody was normalized to its corresponding human-murine chimeric antibody WT. […]
A general note: In an ELISA, binding on a coated surface is turned into a signal by an enzyme label.

The target in assay [2] is T1, human TNFR2 (Novoprotein, Cat #C830). The assay is described as follows: competition ELISA: antibody titrated against human TNFα-Biotin on coated human TNFR2 (Novoprotein), detection with Streptavidin-HRP [panel C]. Here is the method: as §1
Assay [3] shares this target. The assay is described as follows: competition ELISA: antibody titrated against human TNFα-Biotin on coated human TNFR2 (Novoprotein), detection with Streptavidin-HRP [panel A]. As for the experimental part: as §1

B1: 219-WT (antibody, V domains shown)
VH: EVQLQESGAELVRPGASVKLSCKASGYSFTNYWMNWVKQRPGQGLEWIGMIHPSDTETRLNQNFKDKATLTVDKSSSTSYMQLSSPTSEDSAVYYCARGEGLGAARSVSMDYWGQGTTVTVSS
VL: DILMTQSPSSLSASLGDRVTISCRASQDISNYLNWYQQKPDGTVKVLIYYTAILHSGVPSRFSGSGSGTDYSLTISNLEQEDIATYFCQQGNTLPWTFGGGTKLEIK
notes: Human-murine chimeric wild-type molecule
On to B1, for which the “IC50 (read off the curve)” value in assay [1] was approximately 0.6 µg/mL.

B2: 224-WT (antibody, V domains shown)
VH: EVQLQESGPEIVKPGASVKLSCTASGFNNKDIYMHWVKQRPEQGLEWIGRIDPATGNTKHDPKFQDKATLSSDTSSNTAYLQFSSLTSEDTAVYYCAHSPYGDFGAMDYWGQGTTVTVSS
VL: DIQMTQSPAIMSASLGERVTMTCTASSSVSSNYLHWYQQKPGSSPKLWIYSTSNLPSGVPARFSGSGSGTSYSLTISSMEAEDAATYYCHQYHRSPWTFGGGTKLEIK
notes: Human-murine chimeric wild-type molecule; also called human-murine chimeric antibody WT of #224
For B2, the “IC50 (read off the curve)” value in assay [2] was approximately 0.5 µg/mL.

B3: 001-WT (antibody, V domains shown)
VH: EVQLQESGGGLVQPGGSLNLSCAASGFAFSTYDLSWVRQTPEKRLEWVAYINNGGISTYYSDTVKGRFTISRDNAKNTLYLQMSSLKSEDTAMYYCVRGPFYGSANYFDYWGQGTTVTVSS
VL: EIVMTQSPASLSLSVGETVTITCRTSESIYSNLPWYQQKQGKSPQLLVYDATKLAEGVPSRFSGSESGTQYSLKINSLQSEDFGTYYCQHFWVTPWTFGGGTKLEIK
notes: Human-murine chimeric wild-type molecule; also called human-murine chimeric antibody WT of #001
As to B3, in assay [3], the “IC50 (read off the curve)” value was approximately 0.6 µg/mL.
